{
  "source": "paper doi:10.1101/2022.03.25.485784",
  "about": "(bioRxiv, 2022)",
  "proteins": {"B1": {"name": "dtSARM1, the full-length SARM1 with the N-terminal 27-aa segment replaced by a twin-Strep and Flag-tag (enzyme)", "chain": "LAVPGPDGGGGTGPWWAAGGRGPREVSPGAGTEVQDALERALPELQQALSALKQAGGARAVGAGLAEVFQLVEEAWLLPAVGREVAQGLCDAIRLDGGLDLLLRLLQAPELETRVQAARLLEQILVAENRDRVARIGLGVILNLAKEREPVELARSVAGILEHMFKHSEETCQRLVAAGGLDAVLYWCRRTDPALLRHCALALGNCALHGGQAVQRRMVEKRAAEWLFPLAFSKEDELLRLHACLAVAVLATNKEVEREVERSGTLALVEPLVASLDPGRFARCLVDASDTSQGRGPDDLQRLVPLLDSNRLEAQCIGAFYLCAEAAIKSLQGKTKVFSDIGAIQSLKRLVSYSTNGTKSALAKRALRLLGEEVPRPILPSVPSWKEAEVQTWLQQIGFSKYCESFREQQVDGDLLLRLTEEELQTDLGMKSGITRKRFFRELTELKTFANYSTCDRSNLADWLGSLDPRFRQYTYGLVSCGLDRSLLHRVSEQQLLEDCGIHLGVHRARILTAAREMLHSPLPCTGGKPSGDTPDVFISYRRNSGSQLASLLKVHLQLHGFSVFIDVEKLEAGKFEDKLIQSVMGARNFVLVLSPGALDKCMQDHDCKDWVHKEIVTALSCGKNIVPIIDGFEWPEPQVLPEDMQAVLTFNGIKWSHEYQEATIEKIIRFLQGRSSRDSSAGSDTSLEGAAPMGPT"}},
  "target": "the molecule itself",
  "assay": "cryo-EM structure",
  "data": [
    {"protein": "B1", "values": [
      {"measurement": "stoichiometry N", "result": 8}
    ]}
  ]
}
